# Numbered stars: 1 amine (or outer) side, 2 acyl side, 3 side chain; on linkers, the order of the positions; unused ones are H or OH. Bridge positions count the residues as written; N and C are the ends. Side chains are listed from the residue outwards. Ends that are not written are not given here. * marks the point of attachment. C20 diacid = O=C(O)CCCCCCCCCCCCCCCCCCC(=O)*; C18 diacid = O=C(O)CCCCCCCCCCCCCCCCC(=O)*; C16 diacid = O=C(O)CCCCCCCCCCCCCCC(=O)*; γGlu = O=C(O)[C@H](CCC(=O)[*:2])N[*:1]; C14 diacid = O=C(O)CCCCCCCCCCCCC(=O)*; AEEA = NCCOCCOCC(=O)O
# T1: human calcitonin receptor (human, UniProt P30988 25-474)
# T1 sequence (looked up): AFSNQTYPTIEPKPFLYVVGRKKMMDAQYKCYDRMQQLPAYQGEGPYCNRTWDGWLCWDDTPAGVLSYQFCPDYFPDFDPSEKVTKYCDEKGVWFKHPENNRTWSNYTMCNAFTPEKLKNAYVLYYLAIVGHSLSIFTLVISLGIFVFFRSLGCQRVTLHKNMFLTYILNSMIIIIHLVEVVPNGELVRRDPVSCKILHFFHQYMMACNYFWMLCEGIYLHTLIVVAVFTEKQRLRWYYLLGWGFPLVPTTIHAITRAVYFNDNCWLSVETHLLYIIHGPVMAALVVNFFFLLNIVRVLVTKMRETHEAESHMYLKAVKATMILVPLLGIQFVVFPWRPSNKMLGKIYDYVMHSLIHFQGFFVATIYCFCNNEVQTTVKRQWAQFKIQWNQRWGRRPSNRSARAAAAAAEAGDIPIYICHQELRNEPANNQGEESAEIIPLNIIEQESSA
# B1: N^ε1-[2-[2-[2-(19-carboxynonadecanoylamino)ethoxy]ethoxy]acetyl]-[Arg17,Pro21,Pro27,His34]-h-amylin (peptide)
# peptide: K([AEEA-C20 diacid])CNTATCATQRLANFLRHSSPNFGAIPSSTNVGHNTY-NH2
# modifications: disulfide 2-7; N-terminus assumed
# SMILES: CC[C@H](C)[C@H](NC(=O)[C@H](C)NC(=O)CNC(=O)[C@H](Cc1ccccc1)NC(=O)[C@H](CC(N)=O)NC(=O)[C@@H]1CCCN1C(=O)[C@H](CO)NC(=O)[C@H](CO)NC(=O)[C@H](Cc1c[nH]cn1)NC(=O)[C@H](CCCNC(=N)N)NC(=O)[C@H](CC(C)C)NC(=O)[C@H](Cc1ccccc1)NC(=O)[C@H](CC(N)=O)NC(=O)[C@H](C)NC(=O)[C@H](CC(C)C)NC(=O)[C@H](CCCNC(=N)N)NC(=O)[C@H](CCC(N)=O)NC(=O)[C@@H](NC(=O)[C@H](C)NC(=O)[C@@H]1CSSC[C@H](NC(=O)[C@@H](N)CCCCNC(=O)COCCOCCNC(=O)CCCCCCCCCCCCCCCCCCC(=O)O)C(=O)N[C@@H](CC(N)=O)C(=O)N[C@@H]([C@@H](C)O)C(=O)N[C@@H](C)C(=O)N[C@@H]([C@@H](C)O)C(=O)N1)[C@@H](C)O)C(=O)N1CCC[C@H]1C(=O)N[C@@H](CO)C(=O)N[C@@H](CO)C(=O)N[C@H](C(=O)N[C@@H](CC(N)=O)C(=O)N[C@H](C(=O)NCC(=O)N[C@@H](Cc1c[nH]cn1)C(=O)N[C@@H](CC(N)=O)C(=O)N[C@H](C(=O)N[C@@H](Cc1ccc(O)cc1)C(N)=O)[C@@H](C)O)C(C)C)[C@@H](C)O
# notes: also called compound 91
# B2: N^ε1-[(4S)-4-carboxy-4-(15-carboxypentadecanoylamino)butanoyl]-[Arg17,Pro21,Pro27,His34]-h-amylin (peptide)
# peptide: K([γGlu-C16 diacid])CNTATCATQRLANFLRHSSPNFGAIPSSTNVGHNTY-NH2
# modifications: disulfide 2-7; N-terminus assumed
# SMILES: CC[C@H](C)[C@H](NC(=O)[C@H](C)NC(=O)CNC(=O)[C@H](Cc1ccccc1)NC(=O)[C@H](CC(N)=O)NC(=O)[C@@H]1CCCN1C(=O)[C@H](CO)NC(=O)[C@H](CO)NC(=O)[C@H](Cc1c[nH]cn1)NC(=O)[C@H](CCCNC(=N)N)NC(=O)[C@H](CC(C)C)NC(=O)[C@H](Cc1ccccc1)NC(=O)[C@H](CC(N)=O)NC(=O)[C@H](C)NC(=O)[C@H](CC(C)C)NC(=O)[C@H](CCCNC(=N)N)NC(=O)[C@H](CCC(N)=O)NC(=O)[C@@H](NC(=O)[C@H](C)NC(=O)[C@@H]1CSSC[C@H](NC(=O)[C@@H](N)CCCCNC(=O)CC[C@H](NC(=O)CCCCCCCCCCCCCCC(=O)O)C(=O)O)C(=O)N[C@@H](CC(N)=O)C(=O)N[C@@H]([C@@H](C)O)C(=O)N[C@@H](C)C(=O)N[C@@H]([C@@H](C)O)C(=O)N1)[C@@H](C)O)C(=O)N1CCC[C@H]1C(=O)N[C@@H](CO)C(=O)N[C@@H](CO)C(=O)N[C@H](C(=O)N[C@@H](CC(N)=O)C(=O)N[C@H](C(=O)NCC(=O)N[C@@H](Cc1c[nH]cn1)C(=O)N[C@@H](CC(N)=O)C(=O)N[C@H](C(=O)N[C@@H](Cc1ccc(O)cc1)C(N)=O)[C@@H](C)O)C(C)C)[C@@H](C)O
# B3: N^ε1-[(4S)-4-carboxy-4-(13-carboxytridecanoylamino)butanoyl]-[Arg17,Pro21,Pro27,His34]-h-amylin (peptide)
# peptide: K([γGlu-C14 diacid])CNTATCATQRLANFLRHSSPNFGAIPSSTNVGHNTY-NH2
# modifications: disulfide 2-7; N-terminus assumed
# SMILES: CC[C@H](C)[C@H](NC(=O)[C@H](C)NC(=O)CNC(=O)[C@H](Cc1ccccc1)NC(=O)[C@H](CC(N)=O)NC(=O)[C@@H]1CCCN1C(=O)[C@H](CO)NC(=O)[C@H](CO)NC(=O)[C@H](Cc1c[nH]cn1)NC(=O)[C@H](CCCNC(=N)N)NC(=O)[C@H](CC(C)C)NC(=O)[C@H](Cc1ccccc1)NC(=O)[C@H](CC(N)=O)NC(=O)[C@H](C)NC(=O)[C@H](CC(C)C)NC(=O)[C@H](CCCNC(=N)N)NC(=O)[C@H](CCC(N)=O)NC(=O)[C@@H](NC(=O)[C@H](C)NC(=O)[C@@H]1CSSC[C@H](NC(=O)[C@@H](N)CCCCNC(=O)CC[C@H](NC(=O)CCCCCCCCCCCCC(=O)O)C(=O)O)C(=O)N[C@@H](CC(N)=O)C(=O)N[C@@H]([C@@H](C)O)C(=O)N[C@@H](C)C(=O)N[C@@H]([C@@H](C)O)C(=O)N1)[C@@H](C)O)C(=O)N1CCC[C@H]1C(=O)N[C@@H](CO)C(=O)N[C@@H](CO)C(=O)N[C@H](C(=O)N[C@@H](CC(N)=O)C(=O)N[C@H](C(=O)NCC(=O)N[C@@H](Cc1c[nH]cn1)C(=O)N[C@@H](CC(N)=O)C(=O)N[C@H](C(=O)N[C@@H](Cc1ccc(O)cc1)C(N)=O)[C@@H](C)O)C(C)C)[C@@H](C)O
# B4: N^ε1-[(4S)-4-carboxy-4-(17-carboxyheptadecanoylamino)butanoyl]-[Arg17,Pro21,Pro27,His34]-h-amylin (peptide)
# peptide: K([γGlu-C18 diacid])CNTATCATQRLANFLRHSSPNFGAIPSSTNVGHNTY-NH2
# modifications: disulfide 2-7; N-terminus assumed
# SMILES: CC[C@H](C)[C@H](NC(=O)[C@H](C)NC(=O)CNC(=O)[C@H](Cc1ccccc1)NC(=O)[C@H](CC(N)=O)NC(=O)[C@@H]1CCCN1C(=O)[C@H](CO)NC(=O)[C@H](CO)NC(=O)[C@H](Cc1c[nH]cn1)NC(=O)[C@H](CCCNC(=N)N)NC(=O)[C@H](CC(C)C)NC(=O)[C@H](Cc1ccccc1)NC(=O)[C@H](CC(N)=O)NC(=O)[C@H](C)NC(=O)[C@H](CC(C)C)NC(=O)[C@H](CCCNC(=N)N)NC(=O)[C@H](CCC(N)=O)NC(=O)[C@@H](NC(=O)[C@H](C)NC(=O)[C@@H]1CSSC[C@H](NC(=O)[C@@H](N)CCCCNC(=O)CC[C@H](NC(=O)CCCCCCCCCCCCCCCCC(=O)O)C(=O)O)C(=O)N[C@@H](CC(N)=O)C(=O)N[C@@H]([C@@H](C)O)C(=O)N[C@@H](C)C(=O)N[C@@H]([C@@H](C)O)C(=O)N1)[C@@H](C)O)C(=O)N1CCC[C@H]1C(=O)N[C@@H](CO)C(=O)N[C@@H](CO)C(=O)N[C@H](C(=O)N[C@@H](CC(N)=O)C(=O)N[C@H](C(=O)NCC(=O)N[C@@H](Cc1c[nH]cn1)C(=O)N[C@@H](CC(N)=O)C(=O)N[C@H](C(=O)N[C@@H](Cc1ccc(O)cc1)C(N)=O)[C@@H](C)O)C(C)C)[C@@H](C)O
# B5: N^ε1-[(4S)-4-carboxy-4-(19-carboxynonadecanoylamino)butanoyl]-[Ala14,Arg17,Pro21,Pro27,His34]-h-amylin (peptide)
# peptide: K([γGlu-C20 diacid])CNTATCATQRLAAFLRHSSPNFGAIPSSTNVGHNTY-NH2
# modifications: disulfide 2-7; N-terminus assumed
# SMILES: CC[C@H](C)[C@H](NC(=O)[C@H](C)NC(=O)CNC(=O)[C@H](Cc1ccccc1)NC(=O)[C@H](CC(N)=O)NC(=O)[C@@H]1CCCN1C(=O)[C@H](CO)NC(=O)[C@H](CO)NC(=O)[C@H](Cc1c[nH]cn1)NC(=O)[C@H](CCCNC(=N)N)NC(=O)[C@H](CC(C)C)NC(=O)[C@H](Cc1ccccc1)NC(=O)[C@H](C)NC(=O)[C@H](C)NC(=O)[C@H](CC(C)C)NC(=O)[C@H](CCCNC(=N)N)NC(=O)[C@H](CCC(N)=O)NC(=O)[C@@H](NC(=O)[C@H](C)NC(=O)[C@@H]1CSSC[C@H](NC(=O)[C@@H](N)CCCCNC(=O)CC[C@H](NC(=O)CCCCCCCCCCCCCCCCCCC(=O)O)C(=O)O)C(=O)N[C@@H](CC(N)=O)C(=O)N[C@@H]([C@@H](C)O)C(=O)N[C@@H](C)C(=O)N[C@@H]([C@@H](C)O)C(=O)N1)[C@@H](C)O)C(=O)N1CCC[C@H]1C(=O)N[C@@H](CO)C(=O)N[C@@H](CO)C(=O)N[C@H](C(=O)N[C@@H](CC(N)=O)C(=O)N[C@H](C(=O)NCC(=O)N[C@@H](Cc1c[nH]cn1)C(=O)N[C@@H](CC(N)=O)C(=O)N[C@H](C(=O)N[C@@H](Cc1ccc(O)cc1)C(N)=O)[C@@H](C)O)C(C)C)[C@@H](C)O
# notes: also called compound 93
# B6: N^ε1-[2-[2-[2-[[2-[2-[2-[[(4S)-4-carboxy-4-(19-carboxynonadecanoylamino)butanoyl]amino]ethoxy]ethoxy]acetyl]amino]ethoxy]ethoxy]acetyl]-[Arg17,Pro21,Pro27,His34 … (peptide)
# peptide: K([AEEA-AEEA-γGlu-C20 diacid])CNTATCATQRLANFLRHSSPNFGAIPSSTNVGHNTY-NH2
# modifications: disulfide 2-7; N-terminus assumed
# SMILES: CC[C@H](C)[C@H](NC(=O)[C@H](C)NC(=O)CNC(=O)[C@H](Cc1ccccc1)NC(=O)[C@H](CC(N)=O)NC(=O)[C@@H]1CCCN1C(=O)[C@H](CO)NC(=O)[C@H](CO)NC(=O)[C@H](Cc1c[nH]cn1)NC(=O)[C@H](CCCNC(=N)N)NC(=O)[C@H](CC(C)C)NC(=O)[C@H](Cc1ccccc1)NC(=O)[C@H](CC(N)=O)NC(=O)[C@H](C)NC(=O)[C@H](CC(C)C)NC(=O)[C@H](CCCNC(=N)N)NC(=O)[C@H](CCC(N)=O)NC(=O)[C@@H](NC(=O)[C@H](C)NC(=O)[C@@H]1CSSC[C@H](NC(=O)[C@@H](N)CCCCNC(=O)COCCOCCNC(=O)COCCOCCNC(=O)CC[C@H](NC(=O)CCCCCCCCCCCCCCCCCCC(=O)O)C(=O)O)C(=O)N[C@@H](CC(N)=O)C(=O)N[C@@H]([C@@H](C)O)C(=O)N[C@@H](C)C(=O)N[C@@H]([C@@H](C)O)C(=O)N1)[C@@H](C)O)C(=O)N1CCC[C@H]1C(=O)N[C@@H](CO)C(=O)N[C@@H](CO)C(=O)N[C@H](C(=O)N[C@@H](CC(N)=O)C(=O)N[C@H](C(=O)NCC(=O)N[C@@H](Cc1c[nH]cn1)C(=O)N[C@@H](CC(N)=O)C(=O)N[C@H](C(=O)N[C@@H](Cc1ccc(O)cc1)C(N)=O)[C@@H](C)O)C(C)C)[C@@H](C)O
# notes: also called compound 97
# Molecular target: T1, human calcitonin receptor
# Assay: cell-based or functional assay
row,hCTR funct. EC50 (pM),Binder
1,1480,B1
2,2210,B2
3,1090,B3
4,5850,B4
5,1140,B5
6,11800,B6
